Laboratory results published in publication PMC9157467, “A cryptic phosphate-binding pocket on the SPFH domain of human stomatin that regulates a novel fibril-like self-assembly” (Current Research in Structural Biology, 2022).
Changes are numbered by the printed parent chain. Numbers in names are those of the source.

B1: hSTOM(SPFH)-[R125A] (domain or fragment, human, UniProt P27105 94-202, looked up)
chain: VDMRTISFDIPPQEILTKDSVTISVDGVVYYAVQNATLAVANITNADSATRLLAQTTLRNVLGTKNLSQILSDREEIAHNMQSTLDDATDAWGIKVERVEIKDVKLPVQ
notes: human stomatin (STOM), SPFH domain, residues 94-202, with R125A; Same construct as m1 with one alanine substitution (QuikChange); source: E. coli BL21 (DE3), purified (DEAE Sepharose, Glutathione Sepharose 4 Fast Flow, thrombin cleavage, Superdex 75)
B2: hSTOM(SPFH)-[K188A] (domain or fragment, human, UniProt P27105 94-202, looked up)
chain: B1 chain with A32R, K95A
notes: human stomatin (STOM), SPFH domain, residues 94-202, with K188A; Same construct as m1 with one alanine substitution (QuikChange); source: E. coli BL21 (DE3), purified (DEAE Sepharose, Glutathione Sepharose 4 Fast Flow, thrombin cleavage, Superdex 75)

Target: the molecule itself
Assay: light scattering at 320 nm; lyophilized protein suspended to 400 uM in 50 mM sodium phosphate pH 6.0, 100 mM NaCl or 50 mM bis-Tris/HCl pH 6.0, 100 mM NaCl (mutants also at high phosphate); dissolution followed over time

Row | Protein | binding result
1 | B1 | binds
2 | B2 | binds
